What was measured:
Experiment in all cases: two-hybrid library CCmax;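 further: natural log of median RNA to DNA barcode read ratio; higher means stronger binding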
4H2165-AA = biological target: T1, 4H2165-AA; settings: mean of both orientations
T1 chain: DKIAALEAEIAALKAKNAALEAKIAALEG

4H2343-AA = biological target: T2, 4H2343-AA; settings: mean of both orientations
T2 chain: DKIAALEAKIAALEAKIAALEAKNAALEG

GCN2_T = biological target: GCN2_T
4H3438-AA = biological target: T3, 4H3438-AA; settings: mean of both orientations
T3 chain: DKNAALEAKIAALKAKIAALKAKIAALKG

4H406-AA = biological target: T4, 4H406-AA; settings: mean of both orientations
T4 chain: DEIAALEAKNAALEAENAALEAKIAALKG

4H3073-AA = biological target: T5, 4H3073-AA
T5 chain: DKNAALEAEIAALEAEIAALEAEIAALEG

4H3001-AA = biological target: T6, 4H3001-AA; settings: mean of both orientations
T6 chain: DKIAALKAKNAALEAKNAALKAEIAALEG

4H3015-AA = biological target: T7, 4H3015-AA; settings: mean of both orientations
T7 chain: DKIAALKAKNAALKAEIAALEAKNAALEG

4H2774-AA = biological target: T8, 4H2774-AA; settings: mean of both orientations
T8 chain: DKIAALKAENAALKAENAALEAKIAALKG

4H2253-AA = biological target: T9, 4H2253-AA; settings: mean of both orientations
T9 chain: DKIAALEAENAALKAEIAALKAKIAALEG

4H2330-AA = biological target: T10, 4H2330-AA; settings: mean of both orientations
T10 chain: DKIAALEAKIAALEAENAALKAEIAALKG

4H2466-AA = biological target: T11, 4H2466-AA; settings: mean of both orientations
T11 chain: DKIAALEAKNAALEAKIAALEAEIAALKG

4H2931-AA = biological target: T12, 4H2931-AA; settings: mean of both orientations
T12 chain: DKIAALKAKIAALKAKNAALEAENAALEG

4H2732-AA = biological target: T13, 4H2732-AA; settings: mean of both orientations
T13 chain: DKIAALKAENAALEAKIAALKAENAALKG

4H1765-AA = biological target: T14, 4H1765-AA; settings: mean of both orientations
T14 chain: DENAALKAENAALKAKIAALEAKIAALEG

4H1821-AA = biological target: T15, 4H1821-AA; settings: mean of both orientations
T15 chain: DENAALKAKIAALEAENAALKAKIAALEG

4H249-AA = biological target: T16, 4H249-AA; settings: mean of both orientations
T16 chain: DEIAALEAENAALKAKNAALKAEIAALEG

4H452-AA = biological target: T17, 4H452-AA; settings: mean of both orientations
T17 chain: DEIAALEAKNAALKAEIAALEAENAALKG

4H1828-AA = biological target: T18, 4H1828-AA; settings: mean of both orientations
T18 chain: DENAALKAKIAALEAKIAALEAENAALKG

4H_BCR = biological target: T19, 4H_BCR; settings: mean of both orientations
T19 chain: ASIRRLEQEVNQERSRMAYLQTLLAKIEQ

4H175-AA = biological target: T20, 4H175-AA
T20 chain: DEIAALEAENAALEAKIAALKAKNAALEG

4H347-AA = biological target: T21, 4H347-AA
T21 chain: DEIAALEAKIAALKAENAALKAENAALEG

4H_GCN4 = biological target: 4H_GCN4
Sequence of 4H_GCN4 (chain, as listed by the source): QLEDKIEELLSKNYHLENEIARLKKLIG

4H1930-AA = biological target: T22, 4H1930-AA; settings: mean of both orientations
T22 chain: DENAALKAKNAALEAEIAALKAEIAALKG

4H2592-AA = biological target: T23, 4H2592-AA; settings: mean of both orientations
T23 chain: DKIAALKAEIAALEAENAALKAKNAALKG

4H_APH = biological target: T24, 4H_APH
T24 chain: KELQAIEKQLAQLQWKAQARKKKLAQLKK

4H2124-AA = biological target: T25, 4H2124-AA; settings: mean of both orientations
T25 chain: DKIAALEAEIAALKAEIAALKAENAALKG

4H56-AA = biological target: T26, 4H56-AA; settings: mean of both orientations
T26 chain: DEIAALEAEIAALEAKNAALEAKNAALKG

interaction score (4H2165-AA): -1.43 | interaction score (4H2343-AA): -1.82 | interaction score (GCN2_T): -0.991 | interaction score (4H3438-AA): -0.317 | interaction score (4H406-AA): -1.39 | interaction score (4H3073-AA): -2.69 | interaction score (4H3001-AA): -0.307 | interaction score (4H3015-AA): 2.21 | interaction score (4H2774-AA): -0.332 | interaction score (4H2253-AA): -0.981 | interaction score (4H2330-AA): -1.68 | interaction score (4H2466-AA): -1.58 | interaction score (4H2931-AA): -1.11 | interaction score (4H2732-AA): -0.776 | interaction score (4H1765-AA): -1.18 | interaction score (4H1821-AA): -1.36 | interaction score (4H249-AA): 0.000294 | interaction score (4H452-AA): 0.385 | interaction score (4H1828-AA): -1.69 | interaction score (4H_BCR): -2.06 | interaction score (4H175-AA): -0.721 | interaction score (4H347-AA): -1.44 | interaction score (4H_GCN4): -1 | interaction score (4H1930-AA): -1.75 | interaction score (4H2592-AA): -1.32 | interaction score (4H_APH): -0.714 | interaction score (4H2124-AA): -1.39 | interaction score (4H56-AA): -1.56
Binder: DEIAALEAENAALEAKIAALKAKNAALEG [4H175-AA]
